Measured values: patent US20200283502A1 (PEPTICOM LTD., priority 2017, published 2020)
Where a SMILES comes first, the peptide text is derived from it. Where no end group is shown, it is not given here. [ ]: non-standard residue; d: D form. His(π-Me) = Cn1cncc1C[C@H](N)C(=O)O; NMeT = CN[C@H](C(=O)O)[C@@H](C)O; Cha = N[C@@H](CC1CCCCC1)C(=O)O

Target: T1, human GABA receptor (subunits α1β3γ2) (Homo sapiens, UniProt P14867+P28472)
T1 construct: expressed in transfected cells; host or cells: HEK293
Assay: manual whole-cell patch-clamp of GABA receptor-mediated Cl− current in HEK293 cells
Assay type: cell-based
Conditions: for Activity: human α1β3γ2 GABAA receptor, electrophysiological recordings; for potentiation of human GABA receptor-mediated Cl− current: receptor expressed in HEK293 cells, manual whole-cell patch-clamp
Procedure: All the compounds of the present invention were tested and validated using electrophysiological recordings on the human GABAA receptor comprising of the following subunits α1β3γ2.
The peptides of the present invention are capable of activating, inhibiting or modulating the GABAA receptor. These peptides were derived in-silico and tested in-vitro in cell cultures. […] The human GABA receptor (subunits α1β3γ2) used in these experiments was expressed in HEK293 cells in manual whole-cell patch-clamp settings.

T1 sequence (P14867 28-456): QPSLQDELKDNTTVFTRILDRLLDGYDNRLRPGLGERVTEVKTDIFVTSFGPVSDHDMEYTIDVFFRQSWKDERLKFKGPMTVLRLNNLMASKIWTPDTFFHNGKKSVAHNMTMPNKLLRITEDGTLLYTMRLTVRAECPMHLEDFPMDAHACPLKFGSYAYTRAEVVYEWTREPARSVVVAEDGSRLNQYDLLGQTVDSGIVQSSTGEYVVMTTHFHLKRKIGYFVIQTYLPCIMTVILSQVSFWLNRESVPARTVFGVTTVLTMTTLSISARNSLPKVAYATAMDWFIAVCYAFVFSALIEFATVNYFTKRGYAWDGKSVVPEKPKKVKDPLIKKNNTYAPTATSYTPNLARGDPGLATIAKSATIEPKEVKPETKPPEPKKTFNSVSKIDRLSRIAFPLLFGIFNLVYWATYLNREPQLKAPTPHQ
T1 sequence (P28472 26-473): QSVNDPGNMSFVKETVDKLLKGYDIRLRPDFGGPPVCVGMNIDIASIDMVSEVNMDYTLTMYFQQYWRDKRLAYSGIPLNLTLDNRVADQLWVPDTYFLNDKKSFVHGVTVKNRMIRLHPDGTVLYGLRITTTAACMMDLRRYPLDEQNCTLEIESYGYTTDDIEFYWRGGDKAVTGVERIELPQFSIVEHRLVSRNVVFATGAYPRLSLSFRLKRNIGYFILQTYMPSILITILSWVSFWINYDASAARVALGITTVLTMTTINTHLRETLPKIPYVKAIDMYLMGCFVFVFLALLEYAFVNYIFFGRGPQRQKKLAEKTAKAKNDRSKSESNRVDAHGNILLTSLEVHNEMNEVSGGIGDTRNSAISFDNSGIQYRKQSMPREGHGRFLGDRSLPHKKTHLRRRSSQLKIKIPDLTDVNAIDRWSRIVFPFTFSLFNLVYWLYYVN
T1 sequence (P18507 40-475 partner): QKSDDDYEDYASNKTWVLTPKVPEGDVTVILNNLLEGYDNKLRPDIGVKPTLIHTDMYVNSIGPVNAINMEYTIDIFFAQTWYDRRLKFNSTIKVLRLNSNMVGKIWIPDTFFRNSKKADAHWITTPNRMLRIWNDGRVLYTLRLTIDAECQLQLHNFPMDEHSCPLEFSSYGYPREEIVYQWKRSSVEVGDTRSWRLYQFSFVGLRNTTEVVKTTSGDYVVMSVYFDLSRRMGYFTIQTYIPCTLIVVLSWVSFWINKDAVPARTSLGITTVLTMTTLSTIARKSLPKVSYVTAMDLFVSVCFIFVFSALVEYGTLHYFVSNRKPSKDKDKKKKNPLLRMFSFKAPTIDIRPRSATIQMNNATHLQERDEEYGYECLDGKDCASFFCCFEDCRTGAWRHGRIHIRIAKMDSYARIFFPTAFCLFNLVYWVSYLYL

Molecule	Activity	potentiation of human GABA receptor-mediated Cl− current
C[C@@H](O)[C@H](NC(=O)[C@@H](N)CC1CCCCC1)C(=O)N[C@@H](Cc1c[nH]c2ccccc12)C(=O)N[C@@H](CCC(N)=O)C(=O)N[C@H](C=O)CCC(=O)O [SEQ ID NO:2, (L-cyclohexyl-alanine)- TWQE] (H-[Cha]TWQE-aldehyde)	Positive allosteric modulator	selective potentiation
C[C@@H](O)[C@@H](C(=O)N[C@@H](Cc1c[nH]c2ccccc12)C(=O)N[C@@H](CCC(N)=O)C(=O)N[C@H](C=O)CCC(=O)O)N(C)C(=O)[C@@H](N)Cc1cncn1C [SEQ ID NO:3, (3-methyl-L-histidine)-(N-methyl-threonine)-WQE] (H-[His(π-Me)][NMeT]WQE-aldehyde)	Positive allosteric modulator	selective potentiation
C[C@@H](O)[C@@H](C(=O)N[C@H](Cc1c[nH]c2ccccc12)C(=O)N[C@@H](CCC(N)=O)C(=O)N[C@H](C=O)CCC(=O)O)N(C)C(=O)[C@@H](N)Cc1cncn1C [SEQ ID NO:4, (3-methyl-L-histidine)-(N-methyl-threonine)-(N-methyl-tryptophan)-QE] (H-[His(π-Me)][NMeT][dW]QE-aldehyde)	Positive allosteric modulator	selective potentiation
Arg—Phe—His—Ser (RFHS; printed: Arg—Phe—His—Ser) [SEQ ID NO:10]	Positive allosteric modulator	selective potentiation
Arg—Thr—Trp—Gly—Glu (RTWGE; printed: Arg—Thr—Trp—Gly—Glu) [SEQ ID NO:13]	–	selective potentiation
His—Ile—Ser—NH2 [SEQ ID NO:9]	Positive allosteric modulator	selective potentiation
His—Pro—Pro—Ala—Thr (HPPAT; printed: His—Pro—Pro—Ala—Thr) [SEQ ID NO:8]	Positive allosteric modulator	selective potentiation
His—Pro—Trp—Gln (HPWQ; printed: His—Pro—Trp—Gln) [SEQ ID NO:15]	Positive allosteric modulator	selective potentiation
His—Thr—Thr—Gly—Asp (HTTGD; printed: His—Thr—Thr—Gly—Asp) [SEQ ID NO:12]	Positive allosteric modulator	selective potentiation
His—Thr—Trp—Gln—Glu (HTWQE; printed: His—Thr—Trp—Gln—Glu) [SEQ ID NO:1]	Positive allosteric modulator	selective potentiation
His—Thr—Trp—Lys—Lys (HTWKK; printed: His—Thr—Trp—Lys—Lys) [SEQ ID NO:6]	Positive allosteric modulator	selective potentiation
His—Thr—Trp—Pro (HTWP; printed: His—Thr—Trp—Pro) [SEQ ID NO:14]	Positive allosteric modulator	selective potentiation
His—Thr—Trp—Tyr—Glu (HTWYE; printed: His—Thr—Trp—Tyr—Glu) [SEQ ID NO:7]	Positive allosteric modulator	selective potentiation
Thr—Glu—Ser—Lys—Gly—NH2 (TESKG-NH2) [SEQ ID NO:11]	Positive allosteric modulator	selective potentiation
